Laboratory results: the nanobody polyreactivity screen of Harvey et al. (2022)

Assay: yeast display, Sf9 membrane polyspecificity reagent, FACS + sequencing; frameworks hold sequencing errors
Procedure, shortened: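 Sorting gates, low and high (top ~1%), were placed on anti-HA fluorescence to track expression and on streptavidin fluorescence to track reagent binding. A clone's polyreactivity label is taken from the gate it came out of. The reagent was 10% biotinylated, detergent-solubilized Sf9 membrane, applied for 1 hour at 4 °C to galactose-induced yeast display cells.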

Sequence | polyreactivity (PSR sort gate)
QVQLVESGGGLVQAGGSLRLSCAASGRIFRYYAMGWYRQAPGKERELVAGITGSGTTNYADSVKGRFTISRDNAKNTVYLQMNSLKPEDTAVYYCNADRYTFWYRYERGYWGQGTQVTVSS | high polyreactivity
QVQLVESGGGLVQAGGSLRLSCAASGLTFPSNAMGWYRQAPGKERELVAAITSVGITYYADSVKGRFTISRDNAKNTVYLQMNSLKPEDTAVYYCNAPPGGGWYARDDNWGQGTQVTVSS | low polyreactivity
QVQLVESGGGLVQAGGSLRLSCAASGFTFWAYAMGWYRQAPGKETELVAAISKTGGRTYYADSVKGRFTISRDNAKNTVYLQMISLKPEDTAVYYCAVDITGLYYPVDYWGQGTQVTVSS | high polyreactivity
QVQLVESGGGLVQAGGSLRLSCAASGRIFVGYAMGWYIQAPGKERELVAAINRSGSSTYYADSVKGRFTISRDNAKNTVYLQMNRLKPEDTAVYYCNARSGNRYGPRYDYWGQGTQVTVSS | high polyreactivity
QVQRVVSGGGLVQAGGSLRLSCAASGSIFQGNAMGWYRQAPGQERELVAAIHRSDGRTYYADSVKGRFTISRDNAKNTVYLQMNSLKPEDTAVYYCKVDVLLVHDYVFYSWMDYWGQGSQVTVSS | high polyreactivity
QVQIVESGGGLVQAGGSLRLSCAASGRTFSKYAMGWYRQSTWKERELVASITWSGGTTNYADSVKGRVTISRDNAKNTVYLQMNSLKPEDTAVFYCNAQIASDGFNPGKSDYWGLGTQVTVSS | low polyreactivity
QVQLVESGGGLVQAGGSLRLSCAASGRIFDIYAMGWYRQAPGKERELVAGITSVGSTNYADSVKGRFTISRDNAKNTVYLQMNSLKPEDTAVYYCAKDYLKSAAPSPQGLTHYEYWGQGTQVTVSS | low polyreactivity
QVQLVESGGGLVQAGGSLRLSCAASGIIFHFNDMGWYRLAPGKERELVAAITSGGSTNYADSVKGRFTISRDNAKKTVYLQMNSLKPEDTADYYCAARRGLRLFAYRHGYWGQGTQVTVSS | low polyreactivity
QVQLVESGGGLVQAGGSLRLSCAASGFTFARYAMGWYRQAPGKERELVAAITSGSSTYYADSVKGRFTISRDNAKNTVYLQMNSLKPEDTAVYYCAARSFLQSYYYWGQGTQVTVSS | high polyreactivity
QVQLVESGGGLVQAGGSLRLSCAASGSTFPVYAMGWYRQAPGKERELFAAISRAGSTNYADSVKGRFTISRDNAKNTVYLQMNSLKPEDTAVYYCAARGYLWAGEWYVRRDYWGQGTQVTVSS | high polyreactivity
QVQLVESGGGLVQAGGSLRLSCAASGFIFYKYGMGWYRQAPGKERELVAAINRRGGTTSYADSVKGRFTISRDNAKNTVYLQMNSLKPEDTAVYYCAASAPGGQDDYWGQGTQVTVSS | high polyreactivity
QVQLVESGGGLVQAGCSLRLSCAASGITFELYAMGSYRQAPGKERELVAAISSNGGITFYADSVKGRFTISRDYAKNTVYLQMKSLKPEDTEVYYCAARYVRYPRYDYWGQGTQVTVSS | high polyreactivity
PVQLVESGGGLVQAGGSLRLSCAASGSTFPYYDMGWYRPAPGKEREMVAAISASTGSTYYADSVKGRFTISRDKAKITVYLHMYSLKPEVTAVYYCAAAYYYWYTAYDYWGQGTQVTVSS | high polyreactivity
QVQLVESGGGLVQAGGSLRLSCAASGRIFAWYAMGWYRQAPGKERELVAGISWIGGSTYYADSVKGRFTISRDNAKNTVYLQMNSLKPEDTAVYYCNARKKPGSRLDIIGYDYWGQGTQVTVSS | low polyreactivity
QVQLVESVGGLVQAGGSLRLSCAASGFTFYKYAMGWYRQAPGKEREFVAAIRTRSDSTYYADSVKGRFTISRDNAKNTVYLQMNSLKPEDTAVYYCAAQGYVEVGYSRYYYWGQGTQVTVSS | high polyreactivity
QVQLVESGGGIVQAGGSLRLSCAASGNIFHKNAMGWYRQAPGKERELVASISWSGGSTYYADSVKGRFTISRDNAKNTVYLQMNSLKPEDTAVYYCATDAFGYPGNRYALNDYWGQGTQVTVSS | low polyreactivity
QVQLVESGGGLVQAGGSLRLSCAASGRTFGYNAMGWYRQAPGKERQLVAAINWSGASTYYADSVKGRFTISRDNAKNTVYLQMNSLKPEDTAVYYCAADYSYIYGFDYWGQGTQVTVSS | low polyreactivity
QVQLVESGGGLVQAGGSLRLSCAASGRIFGRNTMGWYRQAAGKERELVASITFGGVSTYYADSVKGRFTISRDTEKNTVYLQMNSLKPEDTEVYYCAAVLINYEGYDSWGQGTQVTVSS | low polyreactivity
QVQRVESGGGLVQAGGSLRLSCAASGITFKSYTMGWYRPAPGKERELVAANTASGGTTRYADSVKGRFTISRDNAKKTVYLQMNSLKPEDTAVYYCNALPFRYGKRRGYWGQGTQVTVSS | low polyreactivity
QFQLVESGGGLVQAGGSLRLSCAATGSIFRGNAMGWYRQAPGKERELVAGINRAGSTKYADSVKGRFTISRDNAKNTVYLQMNSLKPEDTAVYYCAAVRYERGLWSDYWGQGTQVTVSS | high polyreactivity
QVQLEESGGGLVQAGGSLRLTCAASGFTFGYYTMGWYRQAPGQERELVAAISSGGSTNYADSVKGRFTISRDNAKNTVYLEMNSLKPEDTAVYYCTATQIGPYYLPFDSWGQGTQVTVSS | high polyreactivity
